Test [1] deals with T1, human CCL2 (human, UniProt P13500 24-99).
T1 construct: also called hCCL2
As to the kind of experiment: SPR, R17 on CM5 chip.

The target of test [2] is T2, human CCL3 (human, UniProt P10147 23-92).
T2 construct: also called hCCL3
T2 sequence: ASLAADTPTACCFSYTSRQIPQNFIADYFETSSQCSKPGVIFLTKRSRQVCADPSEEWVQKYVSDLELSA
Kind of test: SPR, R17 on CM5 chip. In general terms: SPR reads the build-up and loss of mass on a sensor chip optically.

Test [3] deals with T3, murine CCL21 (mouse, UniProt P84444 24-133).
T3 construct: also called mCCL21
T3 sequence: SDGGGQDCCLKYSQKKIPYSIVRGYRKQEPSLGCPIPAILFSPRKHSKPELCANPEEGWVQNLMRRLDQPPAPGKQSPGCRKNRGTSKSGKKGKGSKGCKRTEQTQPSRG
Kind of test: SPR, R17 on CM5 chip.

Test [4] has as its target T4, murine CXCL10 (mouse, UniProt P17515 22-98).
T4 construct: also called mCXCL10
T4 sequence: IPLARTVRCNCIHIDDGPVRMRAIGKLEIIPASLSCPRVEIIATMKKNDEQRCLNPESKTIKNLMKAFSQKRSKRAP
Kind of test: SPR, R17 on CM5 chip.

In test [5] the target is T5, murine CXCL9 (mouse, UniProt P18340 22-126).
T5 construct: also called mCXCL9
T5 sequence: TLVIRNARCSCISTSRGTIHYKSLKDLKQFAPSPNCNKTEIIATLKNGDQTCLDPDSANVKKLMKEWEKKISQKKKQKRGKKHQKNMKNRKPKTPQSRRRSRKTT
Kind of test: SPR, R17 on CM5 chip.

Test [6] deals with T6, murine CXCL2 (mouse, UniProt P10889 28-100).
T6 construct: also called mCXCL2
T6 sequence: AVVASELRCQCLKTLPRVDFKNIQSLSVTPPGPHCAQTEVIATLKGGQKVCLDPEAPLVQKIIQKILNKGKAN
Kind of test: SPR, R17 on CM5 chip.

The target of test [7] is T7, murine CXCL12 (mouse, UniProt P40224 22-89).
T7 construct: also called mCXCL12
T7 sequence (P40224 22-89 limits assumed): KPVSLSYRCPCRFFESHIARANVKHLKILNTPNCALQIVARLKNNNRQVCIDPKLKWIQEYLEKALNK
Kind of test: SPR, R17 on CM5 chip.

Test [8] has as its target T8, murine CXCL1 (mouse, UniProt P12850 25-96).
T8 construct: also called mCXCL1
T8 sequence: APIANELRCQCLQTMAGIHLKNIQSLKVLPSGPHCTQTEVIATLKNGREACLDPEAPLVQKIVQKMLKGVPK
Kind of test: SPR, R17 on CM5 chip.

For test [9], the target named is T9, murine IL-13 (mouse, UniProt P20109 21-131).
T9 construct: also called mIL-13
T9 sequence: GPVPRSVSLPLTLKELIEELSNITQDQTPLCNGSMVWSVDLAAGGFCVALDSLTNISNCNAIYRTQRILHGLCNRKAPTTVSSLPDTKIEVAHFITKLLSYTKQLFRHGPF
As to the kind of experiment: SPR, R17 on CM5 chip.

The target of test [10] is T10, murine IL-12 (mouse, UniProt P43431 23-215; P43432 23-335).
T10 construct: also called mIL-12
T10 sequence 1: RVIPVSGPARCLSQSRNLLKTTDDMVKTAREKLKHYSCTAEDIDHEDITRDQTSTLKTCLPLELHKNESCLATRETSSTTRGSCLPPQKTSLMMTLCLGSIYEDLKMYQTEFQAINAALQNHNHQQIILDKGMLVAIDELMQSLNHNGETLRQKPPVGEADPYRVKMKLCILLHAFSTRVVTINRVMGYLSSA
T10 sequence 2: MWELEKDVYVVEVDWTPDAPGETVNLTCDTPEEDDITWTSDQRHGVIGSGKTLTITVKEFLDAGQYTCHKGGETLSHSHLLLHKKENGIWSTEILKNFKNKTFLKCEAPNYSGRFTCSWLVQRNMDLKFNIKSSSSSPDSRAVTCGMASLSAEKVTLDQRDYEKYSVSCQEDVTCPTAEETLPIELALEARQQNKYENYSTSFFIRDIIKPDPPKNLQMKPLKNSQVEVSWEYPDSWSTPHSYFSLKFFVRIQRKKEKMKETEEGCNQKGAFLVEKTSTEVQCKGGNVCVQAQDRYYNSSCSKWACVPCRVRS
As to the kind of experiment: SPR, R17 on CM5 chip.

The target in test [11] is T11, murine IL-6 (mouse, UniProt P08505 25-211).
T11 construct: also called mIL-6
T11 sequence: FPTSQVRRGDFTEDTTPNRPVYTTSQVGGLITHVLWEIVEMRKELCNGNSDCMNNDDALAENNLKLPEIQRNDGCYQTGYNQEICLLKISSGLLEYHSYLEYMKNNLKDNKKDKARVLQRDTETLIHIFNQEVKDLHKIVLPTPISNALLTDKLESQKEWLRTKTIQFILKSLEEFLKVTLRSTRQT
As to the kind of experiment: SPR, R17 on CM5 chip.

Test [12] concerns the target T12, murine TNF-alpha (mouse, UniProt P06804 80-235).
T12 construct: also called mTNF-alpha; TNF-α
T12 sequence: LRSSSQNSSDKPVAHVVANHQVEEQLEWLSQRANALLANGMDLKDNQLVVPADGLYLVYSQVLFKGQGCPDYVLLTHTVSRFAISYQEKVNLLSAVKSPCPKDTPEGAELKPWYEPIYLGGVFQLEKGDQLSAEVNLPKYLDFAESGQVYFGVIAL
As to the kind of experiment: SPR, R17 on CM5 chip.

Test [13] concerns the target T13, murine CCL3 (mouse, UniProt P10855 24-92).
T13 construct: also called mCCL3
T13 sequence: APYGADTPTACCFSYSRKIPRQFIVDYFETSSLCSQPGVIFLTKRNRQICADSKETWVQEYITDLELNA
As to the kind of experiment: SPR, R17 amine-coupled to CM5 chip.

Test [14] concerns the target T2, human CCL3. As to the kind of experiment: SPR, R17 amine-coupled to CM5 chip.
Test [15] deals with T14, murine CCL4 (mouse, UniProt P14097 24-92).
T14 construct: also called mCCL4
T14 sequence: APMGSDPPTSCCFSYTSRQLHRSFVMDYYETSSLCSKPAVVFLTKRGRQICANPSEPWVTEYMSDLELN
As to the kind of experiment: SPR, R17 amine-coupled to CM5 chip.

The target in test [16] is T15, murine CCL11 (mouse, UniProt P48298 24-97).
T15 sequence: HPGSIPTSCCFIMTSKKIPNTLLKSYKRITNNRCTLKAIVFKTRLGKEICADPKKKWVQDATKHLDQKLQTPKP
Kind of test: SPR, R17 amine-coupled to CM5 chip.

Test [17] deals with T16, murine CCL19 (mouse, UniProt O70460 26-108).
T16 construct: also called mCCL19
T16 sequence: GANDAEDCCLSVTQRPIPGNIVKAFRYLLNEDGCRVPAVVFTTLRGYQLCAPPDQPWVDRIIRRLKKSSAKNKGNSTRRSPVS
Kind of test: SPR, R17 amine-coupled to CM5 chip.

Test [18] has as its target CCL2 (species not given). Kind of test: SPR, R17 variant on CM5 chip; column kd x 10^-3 s-1.

T1 sequence (P13500 24-99 limits assumed): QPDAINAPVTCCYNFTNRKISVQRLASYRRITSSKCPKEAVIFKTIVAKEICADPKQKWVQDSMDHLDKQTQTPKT

B1: R17 chemokine decoy receptor of Rodent herpesvirus Peru (RHVP), wild type, C-terminal 8-His fusion (receptor)
chain: GPVGEPVASEINEASKVSSRLLTQDILFRKDRQATISLPIKLPVEDIITQTCDKITYGPLKFLDLLEKETAVLPLSTDITCPACLGRAVLVGKWECPAHVAVNESDLTVFGPNKEEHVPQFVTVQQPSDGKMQRLFFAKFLGTEESLAVLRVPGPDGHLCIQEALIHFKELSGAGVCSLWKANDSREEGLEMKQVDCLETTVLENQTCIATTLSKKIYHRLYCGERLMTGGQVSTRVLLTALGFYKRQPYTFHRVPKGMVYVHLIDSGSEDYMEYSECEEVTPGRYEDKQISYTFYTDLFQTADGEPVLASVWGTSGLKDSAYESCAFVIPTKGRRKLVPRRIMSKCYPFRLTYHPSTMTVRLDVRVEKHHGATDQGFVFLKMESGTYSEGREYYLDRVLWGEDSSTNNVLQ
notes: not shown: C-terminal 8-His tag
One may read the koff as a measure of how fast the partners let go of each other. For the molecule B1, in [1], the “complex half-life (t1/2)” value was found to be 2.1 s. Also, the “apparent complex half-life (t1/2,app)” value in [2] was greater than 1000 s. Also, the binding result in [3], in [4], in test [5], in test [6], in test [7] and in test [8] was “no binding” each time. For the same molecule, the binding result in test [9] is given as “no binding”; in [10], “no binding”; in test [11], “no binding”; in test [12], “no binding”; in test [16], “binds”; in test [17], “binds”. Moreover, the “dissociation time of the complex” value in [13], in test [14] and in [15] was greater than 10 min in each case. In test [18], this molecule yielded a koff of 0.02 s⁻¹.

The record behind these values is patent US20200164032A1 (WASHINGTON UNIVERSITY, published 2020).
